Source: patent US11679121B2, “Morpholino oligonucleotides useful in cancer treatment” (United States Government As Represented By The Department …, priority 2018, dated 2023)
“Also recorded” adds a separate entry of the source.

Key:
[1] = system: MGMT; assay: Western blot of MGMT expression in tumor cell lines after scrape-loading or transfection-agent delivery of AMONs; assay type: cell-based, human
Method: The ability of each of three AMONs (SEQ ID NO: 1, SEQ ID NO: 2, and SEQ ID NO: 3) to inhibit MGMT expression in tumor cell lines was assessed. Three MGMT expressing solid tumor cell lines (T98G Glioma, H460 and A549 non-small-cell-lung cancer cell lines) were transduced with AMONs using a scrape-loading technique (Partridge M et al, Antisense Nucleic Acid Drug Dev 6, 169-175 (1996); incorporated by reference herein). […] This was replicated in H460 and A549 NSCLC lines.
[…] transfection agents were also used to introduce the AMONs into the cells and produced similar results (FIG. 1B). MGMT silencing was not achieved when cells were exposed to AMONS without scrape-loading or liposomal transfection agents (controls).
Cells were maintained at 37° C. and in an atmosphere containing 5% CO2. Three MGMT antisense oligonucleotide sequences: SEQ ID NO: 1-5′-[…]-3′; SEQ ID NO: 2-5′-[…]-3′; SEQ ID NO: 3-5′-[…]-3′ and one non-specific control sequence: SEQ ID NO: 4-5′-[…]-3′ were synthesized and purchased from Gene Tools, LLC (Philomath, Oreg., USA). Mouse anti-tubulin antibody (T9026) was purchased from Sigma (St. Louis, Mo., USA). Anti-MGMT (#2739), caspase 3 (#9662) and phospho-p53 (Ser15) (#9284) antibodies were purchased from Cell Signaling (Danvers, Mass., USA). Mouse anti-dynamin II (sc-166526) monoclonal antibody was purchased from Santa Cruz Biotechnology (Santa Cruz, Calif., USA).
Delivery of MGMT-morpholino in vitro into the cancer cells: Scrape delivery: 10^6 cancer cells were seeded on a 10-cm culture plate. The culture plate was placed on a flat surface and the cells scraped off the surface with a sterile cell scraper. Different doses or combinations of MGMT-morpholinos were added to the cells. Scraped cell suspensions were pipetted up and down twice and transferred to another culture plate.
Transfection agent delivery: 10^6 cancer cells were seeded in 10-cm culture plate. Cells were treated with transfection agent DharmaFECT (GE Dharmacon; Lafayette, Colo., USA) and MGMT-morpholinos mixture (1:1; v/v).
(§1) Cell viability assay and western blot analyses: Cell viability and proliferation was measured using the WST-1 Proliferation Assay Kit from Chemicon International Inc. (Temecula, Calif.). Cells or tissues were harvested and then washed with ice-cold PBS twice before the addition of RIPA lysis buffer containing protease and phosphatase inhibitors. Protein concentration was quantified using the Bio-Rad method. Equal amounts of protein were loaded into each well and separated by 7.5 or 12% SDS-PAGE gel followed by transfer onto polyvinylidene difluoride membranes (BioRad, Richmond, Calif.). Membranes were blocked using 5% nonfat dry milk or 2% bovine serum albumin (BSA) in PBS-T. The blots were then incubated with primary antibodies (1:200-1:1,000) overnight at 4° C. Secondary antibody (1:5,000; Cell signaling technology, Danvers, Mass.) was incubated for 2 h at room temperature. Immunoblots were developed using the chemiluminescence detection system (Thermo Scientific, Waltham, Mass.) according to the manufacturer's protocol and autoradiography. Quantification of immunoblotting signal of respective proteins was performed using UN-SCAN-IT Gel software (Silk Scientific, Inc., Orem, Utah).

[2] = system: MGMT; assay: Western blot of MGMT expression after ionizing-radiation-enhanced delivery of AMONs, without scrape-loading or transfection agents; assay type: cell-based, human
Method: The ability of ionizing radiation to enhance the cytosolic delivery of AMONs in T98G glioma cell lines and suppress MGMT expression was assessed. T98 G cells were exposed to AMON SEQ ID NO: 2 alone, SEQ ID NO: 3 alone, or the combination of SEQ ID NO: 1, SEQ ID NO: 2 and SEQ ID NO: 3, one hour after exposure to 1 Gy of ionizing radiation. […] As with the use of scrape loading and lysosomal transfection agents, the inhibition of expression with radiation enhanced delivery of AMONS was transient, with peak inhibition at 3 days and restoration of MGMT expression by 7 days. Based on these findings a combination of sequences 1, 2 and 3 were used for further experiments.
To determine the optimal timing for exposure to AMON with respect to exposure to radiation, T98G cell lines were exposed to AMONs 2 hours and 1 hour before radiation as well as 1 and 24 hours after radiation exposure (FIG. 2B). The best inhibition was observed when cells were exposed to AMON 24 hours after radiation. This time line was adopted for further experiments. Different tumor cell lines required different doses of radiation to enhance delivery of AMON. Knockdown could be achieved in T98G cell lines at 1 Gy while H460 and A549 cell lines required exposure to 6-12 Gy for best results with no inhibition at lower doses of ionizing radiation (FIG. 2C).
Radiation delivery: cell culture: 10^6 cancer cells were exposed to different doses of radiation (0.5-12 Gy) at room temperature using a Philips gamma chamber (Philips Medical Systems, Andover, Mass.). After irradiation, cells were treated with mixtures of MGMT-morpholinos (SEQ ID NO: 1, SEQ ID NO: 2, SEQ ID NO: 3=1:1:1; v/v/v) at different time points and at a final concentration of 15 μM.
as §1

[3] = system: T98G; conditions: Yoshino A et al 2010; cited from earlier work
[4] = system: T98G cells; assay: Temozolamide cytotoxicity after radiation and AMONs (Western blot of phosphorylated-p53 and caspase 3); assay type: cell-based, human; conditions: for Susceptibility of cells to temozolamide (phosphorylated-p53, caspase 3): T98G, AMONs 1 day after 1 Gy, 75 or 150 μg/ml temozolamide two days later, lysates 1 and 4 days, FIG. 3
Method: FIG. 3 is a flow chart of an experimental model that includes treatment of cells with radiation, morpholino oligonucleotides of SEQ ID NO: 1, SEQ ID NO: 2, and SEQ ID NO: 3, and 75 or 150 μg/ml temozolamide as indicated.
MGMT expressing glioma cell lines such as T98G are known to be resistant to the cytotoxic effects of temozolomide (Yoshino A et al, Int J Oncol 36, 1367-1377 (2010); incorporated by reference herein). AMONs were administered 1 day after exposure of the T98G cells to 1 Gy of radiation and 75 or 150 μg/ml temozolamide administered two days after administration of the AMONs. Whole cell lysates were then collected 1 and 4 days after exposure to the temozolamide and a Western blot using antibodies specific for the indicated proteins performed.
as §1

[5] = system: MGMT; assay: Subcutaneous H460 xenograft tumors in athymic nude rats: local radiation plus iv AMON, Western blot of MGMT in tumor lysates; assay type: in vivo, human
Method: Due to the inconsistent growth of intracranial T98G cell lines, subcutaneous H460 NSCCL tumors in athymic nude rats were studied. 2.5×10^7 H460 cells were subcutaneously injected in each of their hind limbs of 6 animals. When the tumor reached 10 mm in diameter, a single dose of 5 Gy of ionizing radiation was delivered to the tumor field. AMON was administered intravenously (iv) through the femoral vein 24 hours after radiation. Tumors were harvested 3 days after exposure to AMONs.
Delivery of MGMT-morpholino in vivo: Female (200-250 g) nude (mu/rnu) and heterozygous (rnu/wt) rats were selected from the breeding colony maintained in the animal facility. For subcutaneous tumor model, a total of 2.5×10^7 cells were mixed (ratio 1:1; v/v) with Matrigel Basement Membrane Matrix (BD Biosciences, Bedford, Mass.), and the mixture was injected subcutaneously into both left and right hind legs. At d 7 after inoculation, right SQ tumor was exposed to single dose of radiation (5 Gy) with shielding the rest of body using a Philips gamma chamber (Philips Medical Systems, Andover, Mass.), and left SQ tumor of the same animal without radiation was served as control. A total of 30 mM MGMT-morpholinos SEQ ID NO: 1, SEQ ID NO: 2, SEQ ID NO: 3=1:1:1; v/v/v) was administered intravenously 24 h after irradiation. Tissues (SQ tumors, brain, liver, spleen and kidney) were harvested 3 days after morpholinos and subjected to further protein and DNA analysis.
Cell viability assay and western blot analyses: Cell viability and proliferation was measured using the WST-1 Proliferation Assay Kit from Chemicon International Inc. (Temecula, Calif.). Cells or tissues were harvested and then washed with ice-cold PBS twice before the addition of RIPA lysis buffer containing protease and phosphatase inhibitors. Protein concentration was quantified using the Bio-Rad method. […] Quantification of immunoblotting signal of respective proteins was performed using UN-SCAN-IT Gel software (Silk Scientific, Inc., Orem, Utah).

[6] = system: MGMT gene; assay: MGMT-gene methylation status of subcutaneous tumors by pyrosequencing; assay type: in vivo, human; conditions: after implantation, radiation or AMONs
Method: Measurement of MGMT DNA methylation status: Subcutaneous xenograft tumor DNA was isolated using DNeasy Blood & Tissue Kit from Qiagen International (Germantown, Md., USA). In order to assure the quality and purity of DNA samples, the ratio of A260/A280 was determined and recorded samples was above 1.9. The percentage methylation status of MGMT DNA at CpG islands in samples were measured at using pyrosequening.

[7] = T98G cells, scrape-loading and liposomal transfection agents
[8] = T98G cells, scrape-loading, FIG. 1A
[9] = T98G cells, AMON one hour after 1 Gy ionizing radiation, lysates 3 and 7 days, FIG. 2A

For “5′-ATTCCTTCACGGCCAGTCCTT-3′ (morpholino, chemistry not fully specified) [SEQ ID NO: 3]”, which “Inhibition of MGMT expression (Western blot)” value ([1]; T98G cells, scrape delivery or lipofectamine/liposomal transfection, lysates 3 and 7 days after treatment, FIG. 1C) is on record?
The value was “transient; also recorded: inhibition of MGMT”.

And the “Time of best inhibition of MGMT expression” value [1, 7]?
Its value is 3 days.

And the “Time of restoration of MGMT expression” value [1, 7]?
Its value is ≤ 7 days.

And the “Inhibition of MGMT expression (Western blot)” value [1, 8]?
Its value is “most effective in silencing MGMT expression; also recorded: inhibition of MGMT expression”.

And the “Inhibition of MGMT expression (Western blot)” value [2, 9]?
Its value is “inhibition of MGMT”.

With “5′-TTCCATAACACCTGTCTGGTT-3′ (morpholino, chemistry not fully specified) [SEQ ID NO: 2]” as the molecule, how does the “Inhibition of MGMT expression (Western blot)” value [1, 8] read?
The value was “most effective in silencing MGMT expression; also recorded: inhibition of MGMT expression”.

For “5′-TTTCGTGCAGACCCTGCTCTT-3′ (all phosphorodiamidate morpholino (PMO)) [SEQ ID NO: 1]”, which “Inhibition of MGMT expression (Western blot)” value [1, 8] is on record?
The value was “inhibition of MGMT expression”.

Which “Cytotoxic effects on MGMT expressing glioma cell lines” value [3] does the source give for `Cn1nnc2c(C(N)=O)ncn2c1=O` [temozolomide, reference compound] here?
Its value is “resistant”.

What about the “Dose dependence of enhanced cytotoxic effects” value ([4]; T98G after 1 Gy and AMONs, 75 and 150 μg/mL) of the same molecule?
Its value is “dose dependent”.

For “SEQ ID NO: 2 and SEQ ID NO: 3: combination of morpholino oligonucleotides of SEQ ID NO: 2 and SEQ ID NO: 3 (chain 1 TTCCATAACACCTGTCTGGTT; chain 2 ATTCCTTCACGGCCAGTCCTT; morpholino, chemistry not fully specified)”, which “Inhibition of MGMT expression (Western blot)” value [2, 9] is on record?
Its value is “inhibition of MGMT”.

B1: combination of SEQ ID NO: 1, SEQ ID NO: 2 and SEQ ID NO: 3: mixture of MGMT-morpholinos SEQ ID NO: 1, SEQ ID NO: 2, SEQ ID NO: 3 = 1:1:1 v/v/v; used for experiments after b163 (nucleic acid)
chain 1: TTTCGTGCAGACCCTGCTCTT
chain 2: TTCCATAACACCTGTCTGGTT
chain 3: ATTCCTTCACGGCCAGTCCTT
modifications: morpholino mixture, chemistry not fully specified
notes: used for experiments after b163
Which “Inhibition of MGMT expression in tumors (Western blot)” value (from here on “Inhibition … in tumors (Western blot)”) ([5]; H460 subcutaneous control tumors, systemic AMON but no radiation) does the source give for B1 here?
Its value is “not seen”.

And the “Inhibition … in tumors (Western blot)” value ([5]; H460 subcutaneous tumors, 5 Gy to tumor 24 hours before iv AMON, harvested 3 days after)?
The value was “inhibition of MGMT expression was achieved”.

What about the “Inhibition … in tumors (Western blot)” value ([5]; H460 subcutaneous tumors, 5 Gy to tumor 24 hours before iv AMON, harvested 3 days after, listed as combination of morpholino oligonucleotides of SEQ ID NO: 1, SEQ ID NO: 2, and SE) of the same molecule?
Its value is “inhibition of MGMT expression”.

And the “Changes in MGMT-gene methylation status” value [6]?
The value was “No significant changes”.

What about the “Inhibition of MGMT expression (Western blot)” value ([1]; H460 NSCLC cells, transfection agents, 6 μM and 15 μM, FIG. 1B) of the same molecule?
Its value is “inhibition of MGMT expression”.

And the “Inhibition of MGMT expression (Western blot)” value [1, 8]?
The value was “most effective in silencing MGMT expression”.

And the “Inhibition of MGMT expression (Western blot)” value ([1]; T98G cells, scrape-loading, FIG. 1A, SEQ ID NO: 2, and SEQ ID NO: 3)?
The value was “inhibition of MGMT expression”.

And the “Radiation dose required for best results (knockdown)” value ([2]; H460 and A549 cell lines)?
The value was 6-12 Gy.

And the “Inhibition of MGMT expression at lower doses of ionizing radiation” value ([2]; H460 and A549 cell lines, doses below 6-12 Gy)?
Its value is “no inhibition”.

What about the “Radiation dose at which knockdown could be achieved” value ([2]; T98G cell lines) of the same molecule?
Its value is 1 Gy.

What about the “Inhibition of MGMT expression (Western blot)” value ([2]; T98G cells, 24 hours after exposure to the dose of radiation indicated, FIG. 2C) of the same molecule?
Its value is “inhibition of MGMT”.

What about the “Inhibition of MGMT expression (Western blot)” value ([2]; T98G cells, AMON one hour after 1 Gy ionizing radiation, lysates 3 and 7 days, FIG. 2A, SEQ ID NO: 2, and SEQ ID NO: 3) of the same molecule?
The value was “inhibition of MGMT”.

And the “Inhibition of MGMT expression (Western blot)” value ([2]; T98G cells, AMON one hour after 1 Gy ionizing radiation, lysates 3 and 7 days, FIG. 2A, listed as combination of sequences 1, 2 and 3)?
The value was “most effective at inhibiting MGMT expression”.

What about the “Time of exposure to AMON after radiation that gave the best inhibition” value ([2]; T98G cells, tested 2 h and 1 h before, 1 and 24 h after radiation) of the same molecule?
Its value is 24 h.

And the “Inhibition of MGMT expression (Western blot)” value ([2]; T98G cells, treated before or after exposure to 1 Gy radiation, FIG. 2B)?
The value was “inhibition of MGMT”.

And the “Susceptibility of cells to temozolamide (phosphorylated-p53, caspase 3)” value [4]?
The value was “susceptible to temozolomide”.

What about the “Susceptibility of cells to temozolamide (phosphorylated-p53, caspase 3)” value ([4]; listed as morpholino oligonucleotides of SEQ ID NO: 1, SEQ ID NO: 2, and SEQ ID NO: 3) of the same molecule?
Its value is “enhanced cytotoxic effects of temozolamide”.
